From article PMC5031558 (2016)

T1: p97_PIM (Homo sapiens (Human), UniProt P55072)
T1 chain: TEDNDDDLYG

T2: OTULIN_PIM (Homo sapiens (Human), UniProt Q96BN8)
T2 chain: AEHEEDMYRAADEIEKEKE

T3: SPATA2_PIM (Homo sapiens (Human), UniProt Q9UM82)
T3 chain: DVDLYTDSEPR

B1: PNGase_PUB (protein)
chain: GSASPAVAELCQNTPETFLEASKLLLTYADNILRNPNDEKYRSIRIGNTAFSTRLLPVRGAVECLFEMGFEEGETHLIFPKKASVEQLQKIRDLIAIER
B2: HOIP_PUB (protein)
chain: MPGEEEERAFLVAREELASALRRDSGQAFSLEQLRPLLASSLPLAARYLQLDAARLVRCNAHGEPRNYLNTLSTALNILEKYGRNLLSPQRPRYWRGVKFNNPVFRSTVDAVQGGRDVLRLYGYTEEQPDGLSFPEGQEEPDEHQVATVTLEVLLLRTELSLLLQNTHPRQQALEQLLEDKVED
B3: SPATA2_PUB (protein)
chain: MDTKFKDDLFRKYVQFHESKVDTTTSRQRPGSDECLRVAASTLLSLHKVDPFYRFRLIQFYEVVESSLRSLSSSSLRALHGAFSMLETVGINLFLYPWKKEFRSIKTYTGPFVYYVKSTLLEEDIRAILSCMGYTPELGTAYKLRELVETLQVKMVSFELFLAKVECEQMLEIHSQVKDKGYSELDIVSERKSSAEDVRGCSDALRRRAEGRE
B4: UBXN6_PUB (protein)
chain: STDPVAASIMKIYTFNKDQDRVKLGVDTIAKYLDNIHLHPEEEKYRKIKLQNKVFQERINCLEGTHEFFEAIGFQKVLLPAQDQEDPEEFYVLSETTLAQPQSLERHKEQLLAAE

Biological target: T1, p97_PIM
Test: FP, FITC-Ahx peptide

Row | Kd [µM] | Binder
1 | 2.1 | B1
2 | 10.2 | B2
3 | > 100 | B3
4 | 27.1 | B4

Biological target: T2, OTULIN_PIM
Test: FP, FITC-Ahx peptide

Row | Kd [µM] | Binder
5 | > 100 | B3

Biological target: T3, SPATA2_PIM
Test: FP, FITC-Ahx peptide

Row | Kd [µM] | Binder
6 | > 100 | B1
7 | 0.36 | B2
8 | > 100 | B3
9 | > 100 | B4
